Numbered stars: 1 amine (or outer) side, 2 acyl side, 3 side chain; on linkers, the order of the positions; unused ones are H or OH. Bridge positions count the residues as written; N and C are the ends. Side chains are listed from the residue outwards. Ends that are not written are not given here. * marks the point of attachment. C20 diacid = O=C(O)CCCCCCCCCCCCCCCCCCC(=O)*; γGlu = O=C(O)[C@H](CCC(=O)[*:2])N[*:1]; AEEA = NCCOCCOCC(=O)O
T1: human amylin receptor (human, UniProt P30988 25-474; O60896 24-148, limits assumed)
T1 construct: whole, on cells; Used as cell membranes prepared from the Amylin 3(a)/CRE-luc BHK cells (Assay V); also called hAmylin-R; hAmylinR
T1 sequence (looked up) 1: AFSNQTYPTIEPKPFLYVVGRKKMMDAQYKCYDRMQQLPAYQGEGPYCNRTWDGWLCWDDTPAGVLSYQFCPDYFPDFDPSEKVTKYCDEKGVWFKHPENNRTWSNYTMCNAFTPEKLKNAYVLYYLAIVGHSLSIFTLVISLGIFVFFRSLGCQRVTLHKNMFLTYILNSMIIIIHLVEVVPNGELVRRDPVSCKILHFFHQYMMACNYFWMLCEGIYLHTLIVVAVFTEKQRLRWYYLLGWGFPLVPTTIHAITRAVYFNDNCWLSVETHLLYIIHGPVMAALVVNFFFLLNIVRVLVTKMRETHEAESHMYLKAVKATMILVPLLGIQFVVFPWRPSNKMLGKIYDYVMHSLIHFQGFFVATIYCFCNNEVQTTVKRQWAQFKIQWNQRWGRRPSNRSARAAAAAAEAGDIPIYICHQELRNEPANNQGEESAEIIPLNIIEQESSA
T1 sequence (looked up) 2: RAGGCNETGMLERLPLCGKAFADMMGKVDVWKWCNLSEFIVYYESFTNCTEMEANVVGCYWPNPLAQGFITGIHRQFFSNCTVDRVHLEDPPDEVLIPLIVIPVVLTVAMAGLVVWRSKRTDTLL

B1: N^-1-[(4S)-4-carboxy-4-(19-carboxynonadecanoylamino)butanoyl]-Gly[Arg1,Ala14,Arg17,Pro21,Pro27,His34]-h-amylin (peptide)
peptide: {C20 diacid-γGlu}-GRCNTATCATQRLAAFLRHSSPNFGAIPSSTNVGHNTY-NH2
modifications: disulfide 3-8
SMILES: CC[C@H](C)[C@H](NC(=O)[C@H](C)NC(=O)CNC(=O)[C@H](Cc1ccccc1)NC(=O)[C@H](CC(N)=O)NC(=O)[C@@H]1CCCN1C(=O)[C@H](CO)NC(=O)[C@H](CO)NC(=O)[C@H](Cc1c[nH]cn1)NC(=O)[C@H](CCCNC(=N)N)NC(=O)[C@H](CC(C)C)NC(=O)[C@H](Cc1ccccc1)NC(=O)[C@H](C)NC(=O)[C@H](C)NC(=O)[C@H](CC(C)C)NC(=O)[C@H](CCCNC(=N)N)NC(=O)[C@H](CCC(N)=O)NC(=O)[C@@H](NC(=O)[C@H](C)NC(=O)[C@@H]1CSSC[C@H](NC(=O)[C@H](CCCNC(=N)N)NC(=O)CNC(=O)CC[C@H](NC(=O)CCCCCCCCCCCCCCCCCCC(=O)O)C(=O)O)C(=O)N[C@@H](CC(N)=O)C(=O)N[C@@H]([C@@H](C)O)C(=O)N[C@@H](C)C(=O)N[C@@H]([C@@H](C)O)C(=O)N1)[C@@H](C)O)C(=O)N1CCC[C@H]1C(=O)N[C@@H](CO)C(=O)N[C@@H](CO)C(=O)N[C@H](C(=O)N[C@@H](CC(N)=O)C(=O)N[C@H](C(=O)NCC(=O)N[C@@H](Cc1c[nH]cn1)C(=O)N[C@@H](CC(N)=O)C(=O)N[C@H](C(=O)N[C@@H](Cc1ccc(O)cc1)C(N)=O)[C@@H](C)O)C(C)C)[C@@H](C)O
B2: N^ε-[2-[2-[2-[[(4S)-4-carboxy-4-(19-carboxynonadecanoylamino)butanoyl]amino]ethoxy]ethoxy]acetyl]Lys[Arg1,Arg17,Pro21,Pro27,His35]-h-amylin (peptide)
peptide: K([AEEA-γGlu-C20 diacid])RCNTATCATQRLANFLRHSSPNFGAIPSSTNVGSHTY-NH2
modifications: disulfide 3-8; N-terminus assumed
SMILES: CC[C@H](C)[C@H](NC(=O)[C@H](C)NC(=O)CNC(=O)[C@H](Cc1ccccc1)NC(=O)[C@H](CC(N)=O)NC(=O)[C@@H]1CCCN1C(=O)[C@H](CO)NC(=O)[C@H](CO)NC(=O)[C@H](Cc1c[nH]cn1)NC(=O)[C@H](CCCNC(=N)N)NC(=O)[C@H](CC(C)C)NC(=O)[C@H](Cc1ccccc1)NC(=O)[C@H](CC(N)=O)NC(=O)[C@H](C)NC(=O)[C@H](CC(C)C)NC(=O)[C@H](CCCNC(=N)N)NC(=O)[C@H](CCC(N)=O)NC(=O)[C@@H](NC(=O)[C@H](C)NC(=O)[C@@H]1CSSC[C@H](NC(=O)[C@H](CCCNC(=N)N)NC(=O)[C@@H](N)CCCCNC(=O)COCCOCCNC(=O)CC[C@H](NC(=O)CCCCCCCCCCCCCCCCCCC(=O)O)C(=O)O)C(=O)N[C@@H](CC(N)=O)C(=O)N[C@@H]([C@@H](C)O)C(=O)N[C@@H](C)C(=O)N[C@@H]([C@@H](C)O)C(=O)N1)[C@@H](C)O)C(=O)N1CCC[C@H]1C(=O)N[C@@H](CO)C(=O)N[C@@H](CO)C(=O)N[C@H](C(=O)N[C@@H](CC(N)=O)C(=O)N[C@H](C(=O)NCC(=O)N[C@@H](CO)C(=O)N[C@@H](Cc1c[nH]cn1)C(=O)N[C@H](C(=O)N[C@@H](Cc1ccc(O)cc1)C(N)=O)[C@@H](C)O)C(C)C)[C@@H](C)O
notes: also called compound 45
B3: N^ε-[(4S)-4-carboxy-4-(19-carboxynonadecanoylamino)butanoyl]Lys[Arg1,Arg17,Pro21,Pro27,His35]-h-amylin (peptide)
peptide: K([γGlu-C20 diacid])RCNTATCATQRLANFLRHSSPNFGAIPSSTNVGSHTY-NH2
modifications: disulfide 3-8; N-terminus assumed
SMILES: CC[C@H](C)[C@H](NC(=O)[C@H](C)NC(=O)CNC(=O)[C@H](Cc1ccccc1)NC(=O)[C@H](CC(N)=O)NC(=O)[C@@H]1CCCN1C(=O)[C@H](CO)NC(=O)[C@H](CO)NC(=O)[C@H](Cc1c[nH]cn1)NC(=O)[C@H](CCCNC(=N)N)NC(=O)[C@H](CC(C)C)NC(=O)[C@H](Cc1ccccc1)NC(=O)[C@H](CC(N)=O)NC(=O)[C@H](C)NC(=O)[C@H](CC(C)C)NC(=O)[C@H](CCCNC(=N)N)NC(=O)[C@H](CCC(N)=O)NC(=O)[C@@H](NC(=O)[C@H](C)NC(=O)[C@@H]1CSSC[C@H](NC(=O)[C@H](CCCNC(=N)N)NC(=O)[C@@H](N)CCCCNC(=O)CC[C@H](NC(=O)CCCCCCCCCCCCCCCCCCC(=O)O)C(=O)O)C(=O)N[C@@H](CC(N)=O)C(=O)N[C@@H]([C@@H](C)O)C(=O)N[C@@H](C)C(=O)N[C@@H]([C@@H](C)O)C(=O)N1)[C@@H](C)O)C(=O)N1CCC[C@H]1C(=O)N[C@@H](CO)C(=O)N[C@@H](CO)C(=O)N[C@H](C(=O)N[C@@H](CC(N)=O)C(=O)N[C@H](C(=O)NCC(=O)N[C@@H](CO)C(=O)N[C@@H](Cc1c[nH]cn1)C(=O)N[C@H](C(=O)N[C@@H](Cc1ccc(O)cc1)C(N)=O)[C@@H](C)O)C(C)C)[C@@H](C)O
notes: also called compound 44
B4: N^-1-[(4S)-4-carboxy-4-(19-carboxynonadecanoylamino)butanoyl]-Gly[Arg1,His14,Arg17,Pro21,Pro27,Pro34]-h-amylin (peptide)
peptide: {C20 diacid-γGlu}-GRCNTATCATQRLAHFLRHSSPNFGAIPSSTNVGPNTY-NH2
modifications: disulfide 3-8
SMILES: CC[C@H](C)[C@H](NC(=O)[C@H](C)NC(=O)CNC(=O)[C@H](Cc1ccccc1)NC(=O)[C@H](CC(N)=O)NC(=O)[C@@H]1CCCN1C(=O)[C@H](CO)NC(=O)[C@H](CO)NC(=O)[C@H](Cc1c[nH]cn1)NC(=O)[C@H](CCCNC(=N)N)NC(=O)[C@H](CC(C)C)NC(=O)[C@H](Cc1ccccc1)NC(=O)[C@H](Cc1c[nH]cn1)NC(=O)[C@H](C)NC(=O)[C@H](CC(C)C)NC(=O)[C@H](CCCNC(=N)N)NC(=O)[C@H](CCC(N)=O)NC(=O)[C@@H](NC(=O)[C@H](C)NC(=O)[C@@H]1CSSC[C@H](NC(=O)[C@H](CCCNC(=N)N)NC(=O)CNC(=O)CC[C@H](NC(=O)CCCCCCCCCCCCCCCCCCC(=O)O)C(=O)O)C(=O)N[C@@H](CC(N)=O)C(=O)N[C@@H]([C@@H](C)O)C(=O)N[C@@H](C)C(=O)N[C@@H]([C@@H](C)O)C(=O)N1)[C@@H](C)O)C(=O)N1CCC[C@H]1C(=O)N[C@@H](CO)C(=O)N[C@@H](CO)C(=O)N[C@H](C(=O)N[C@@H](CC(N)=O)C(=O)N[C@H](C(=O)NCC(=O)N1CCC[C@H]1C(=O)N[C@@H](CC(N)=O)C(=O)N[C@H](C(=O)N[C@@H](Cc1ccc(O)cc1)C(N)=O)[C@@H](C)O)C(C)C)[C@@H](C)O

These binders were tested against T1, human amylin receptor (assay: SPA competition vs 125I-rat amylin, membranes of amylin 3(a) receptor BHK cells (Assay V)).
How it was run: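 SPA beads + BHK amylin 3(a)/CRE-luc membranes, 35 ng/μL final; buffer 50 mM Hepes pH 7.4, 1 mM CaCl2, 5 mM MgCl₂, 0.1% OA, 0.02% Tween20. 120 min, 25° C, shaken; scintillation count. IC₅₀ by one-site binding competition fit, taken as receptor affinity.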

IC50 [nM] | Binder
0.426 | B1
0.114 | {C20 diacid-γGlu}-GRCNTATCATQRLAAFLRHSSPNFGAIPSSTNVGPNTY-NH2 (disulfide 3-8)
0.552 | B2
0.275 | B3
0.217 | B4

Reference: patent US20140087995A1 (published 2014)
